Assay results: PMC4973239, “Crystal structure of the human Tip41 orthologue, TIPRL, reveals a novel fold and a binding site for the PP2Ac C-terminus” (Scientific Reports, 2016)

T1: TIPRLΔN, His tag removed with TEV protease (human, UniProt O75663-1 16-272)
T1 construct: plasmid-derived residues left at the N-terminus after TEV cleavage; they form strand β1; TIPRL (TIP41, TOR signaling pathway regulator-like), human, NP_690866.1, with a 15-residue N-terminal deletion; TEV cleavage was usually incomplete; The last 16 C-terminal residues are disordered in the crystal; also called TIPRL (crystal structure); source: E. coli BL21(DE3), purified (Ni Sepharose, TEV …)
T1 sequence: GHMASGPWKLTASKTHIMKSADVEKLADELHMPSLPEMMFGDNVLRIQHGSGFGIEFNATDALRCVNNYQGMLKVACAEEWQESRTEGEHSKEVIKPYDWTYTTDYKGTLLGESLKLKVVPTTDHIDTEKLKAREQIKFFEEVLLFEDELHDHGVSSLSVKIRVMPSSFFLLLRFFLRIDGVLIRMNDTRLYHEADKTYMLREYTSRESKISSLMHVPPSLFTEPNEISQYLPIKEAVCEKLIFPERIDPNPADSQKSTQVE

B1: peptide generated after cleavage with the TEV protease (MGHHHHHHENLYFQ) (peptide)
peptide: MGHHHHHHENLYFQ
notes: hexa-histidine tag and TEV cleavage site of the vector pET-TEV, as released by TEV protease; only LYFQ (site on chain A) or ENLYFQ (site on chain B) is seen in the density; also called TEV site peptide; TEV-derived peptide; source: E. coli BL21(DE3)

Legend:
[1] = biological target: TIPRLΔN, His tag removed with TEV protease (human) (UniProt O75663); assay: SEC; size exclusion profiles under different conditions (Fig. S1B), high concentration; HiLoad 26/60 Superdex 75 pg, Tris 20 mM pH 7.5, 100 mM NaCl, 10 mM β-mercaptoethanol
[2] = biological target: T1, TIPRLΔN, His tag removed with TEV …; assay: crystal structure; TIPRLΔN after TEV cleavage, 70–100 mg/ml; hanging drop at 18 °C, phosphate or SPG buffer pH 5.5–6.7, 2 to 3 M NaCl; two molecules in the asymmetric unit; 2.15 Å; conditions: both partners purified

Row | Molecule | stoichiometry N [1] | binding result [2]
1 | TIPRLΔN, His tag removed with TEV protease (from UniProt O75663-1 16-272) (domain or fragment) | 2 | 
2 | B1 |  | binds
